Assay results: US20210101937A1

Molecular target: CD137 (UniProt Q07011)
Experiment: cell-based or functional assay

CD137, sequence (Q07011 24-255 limits assumed): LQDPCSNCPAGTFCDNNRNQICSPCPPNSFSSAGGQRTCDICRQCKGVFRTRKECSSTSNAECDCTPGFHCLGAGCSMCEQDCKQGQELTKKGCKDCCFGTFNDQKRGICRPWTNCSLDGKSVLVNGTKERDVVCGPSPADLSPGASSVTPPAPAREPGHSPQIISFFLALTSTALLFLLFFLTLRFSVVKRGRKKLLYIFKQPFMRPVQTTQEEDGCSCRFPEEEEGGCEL

Row | EC50, CD137 reporter coculture assay with NCI-H292 cells | Emax, CD137 reporter coculture assay with NCI-H292 cells (fold over background) | EC50, CD137 reporter coculture assay with PC3 cells | Emax, CD137 reporter coculture assay with PC3 cells (fold over background) | Substance
1 | 1100 pM | 28 | – | – | BCY10000 (peptide)
2 | – | – | 540 pM | 42 | BCY9173 (peptide)
